Results on 1 substance are retold here after paper PMC6411835.

By Kd is commonly meant the free concentration of one partner at which half of the binding sites on the other are occupied at equilibrium, for simple one-to-one binding. The low end stands for tighter binding, the high end for weaker binding.

In the data set the target is T1, Zip2(499-704);Spo16 (Saccharomyces cerevisiae;Saccharomyces cerevisiae) (UniProt P53061+P17122).
T1 sequence 1: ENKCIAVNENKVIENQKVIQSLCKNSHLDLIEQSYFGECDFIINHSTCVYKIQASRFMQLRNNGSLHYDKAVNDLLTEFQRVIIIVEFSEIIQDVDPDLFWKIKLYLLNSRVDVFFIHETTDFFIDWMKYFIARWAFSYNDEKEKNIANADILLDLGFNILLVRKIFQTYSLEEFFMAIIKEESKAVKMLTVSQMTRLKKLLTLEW
T1 sequence 2: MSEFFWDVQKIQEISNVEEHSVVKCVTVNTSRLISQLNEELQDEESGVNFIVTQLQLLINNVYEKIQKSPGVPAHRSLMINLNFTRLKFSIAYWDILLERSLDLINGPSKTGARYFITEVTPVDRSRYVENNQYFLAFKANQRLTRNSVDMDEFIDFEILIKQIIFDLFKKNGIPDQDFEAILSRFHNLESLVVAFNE
The data set is described as follows: EMSA.

For nicked Holliday Junction, the Kd came out at 5 µM.
